# Measured values reported in article PMC6764986 (2019).
# Where no end group is shown, it is not given here.
# T1: ALFA-tagged target immobilized for SPR (TST-NEDD8-ALFA or GFP-ALFA) (synthetic construct, not fully specified)
# T1 chain: SRLEEELRRRLTE
# B1: NbALFA (non-tagged) (VHH)
# VHH: EVQLQESGGGLVQPGGSLRLSCTASGVTISALNAMAMGWYRQAPGERRVMVAAVSERGNAMYRESVQGRFTVTRDFTNKMVSLQMDNLKPEDTAVYYCHVLEDRVDSFHDYWGQGTQVTVSS
# B2: ALFA-tagged target immobilized for SPR (TST-NEDD8-ALFA or GFP-ALFA) (other)
# chain: SRLEEELRRRLTE
# Assays:
# [1] = biological target: T1, ALFA-tagged target immobilized for SPR …; assay: SPR; ligand GFP-ALFA
# NbALFAPE = assay: SPR; ligand TST-NEDD8-ALFA
Binder,koff [1] [s⁻¹],Kd (NbALFAPE) [nM],koff (NbALFAPE) [s⁻¹]
B1,9.4e-06,–,–
B2,–,11,0.0029
